The values below come from patent US20040260069A1 (Merck KGaA, published 2004).

The target in assay [1] is T1, TNF alpha (PeproTech EC Ltd, London, UK) (human, UniProt P01375 77-233).
T1 construct: also called tumor necrosis factor alpha
The assay can be described thus: plate ELISA, TNF alpha coated at 2.5 µg/ml, anti-human IgG-HRP detection. For orientation: In an ELISA, binding on a coated surface is turned into a signal by an enzyme label.

For assay [2], the target named is T2, biotinylated TNF alpha (human, UniProt P01375 77-233, biotinylated using EZ link Sulfo-NHS-biotin (sites not given)).
T2 construct: also called biotin-TNF alpha
Description: competition ELISA, antibody against plate-bound TNF alpha RII-Fc for biotin-TNF alpha.

T2 sequence (P01375 77-233 limits assumed): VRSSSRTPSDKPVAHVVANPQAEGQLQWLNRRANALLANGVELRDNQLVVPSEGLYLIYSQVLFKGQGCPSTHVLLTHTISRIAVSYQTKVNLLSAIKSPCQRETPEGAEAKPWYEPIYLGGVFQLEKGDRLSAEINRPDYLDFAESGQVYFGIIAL
T1 sequence (P01375 77-233 limits assumed): as above

B1: modified anti-TNF alpha antibody Vh5/Vk12 (antibody, human IgG1, V domains shown)
VH: EVKLEESGGGLVQPGGSLRLSCAASGFTFSNHWMNWVRQSPEKGLEWVAETRSKSTNSATHYAESVKGRFTISRDDSKNSLYLQMNSLKTEDTGVYYCSRNYYGSTYDYWGQGTTVTVSS
VL: DIQLTQSPDTSSASPGERASFSCRASQFVGSSIHWYQHTTNGSPRLLIKYASESMSGVPSRFSGSGSGTDFTLTINSLEAEDAATYYCQQSHSWPFTFGSGTNLEVKR
notes: Expressed in NS/0 cells as whole antibody with a human IgG1 constant region (vector pSVgpt) and a human kappa constant region (vector pSVhyg); also called modified antibody of the invention; preferred antibody of the present invention
On to B1, for which the binding result in assay [1] and in assay [2] was “binds” in each case.
